Measured values taken from US20200199241A1 (Chugai, published 2020).

T1: human FcγRIIb (human, UniProt P31994 43-217, limits assumed)
T1 construct: also called FcgRIIb
T1 sequence: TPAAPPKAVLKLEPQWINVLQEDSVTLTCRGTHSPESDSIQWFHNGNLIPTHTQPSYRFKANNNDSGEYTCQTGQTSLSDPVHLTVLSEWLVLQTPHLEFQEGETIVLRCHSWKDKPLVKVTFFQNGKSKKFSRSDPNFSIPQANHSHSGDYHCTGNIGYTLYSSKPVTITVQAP

T2: human FcγRIIa(H) (human, UniProt P12318 36-217)
T2 construct: also called FcgRIIaH; FcγRIIa type H
T2 sequence: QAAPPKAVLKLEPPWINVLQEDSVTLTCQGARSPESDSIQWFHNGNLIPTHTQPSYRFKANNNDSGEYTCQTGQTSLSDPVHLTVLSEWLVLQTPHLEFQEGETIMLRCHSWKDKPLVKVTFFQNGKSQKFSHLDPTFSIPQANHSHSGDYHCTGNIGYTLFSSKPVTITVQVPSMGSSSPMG

T3: human FcγRIIa(R) (human, UniProt P12318 36-217)
T3 construct: also called FcgRIIaR; FcγRIIa type R
T3 chain: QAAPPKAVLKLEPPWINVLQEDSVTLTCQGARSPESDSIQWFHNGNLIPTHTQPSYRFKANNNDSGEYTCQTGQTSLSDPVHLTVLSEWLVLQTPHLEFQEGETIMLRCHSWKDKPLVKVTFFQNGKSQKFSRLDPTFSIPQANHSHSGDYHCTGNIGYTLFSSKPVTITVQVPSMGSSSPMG


What was measured:
Test in all cases: SPR (Biacore);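 note: antibody variants captured on sensor chip, Fcγ receptor flowed over at 25 °C, bound receptor normalized to amount of captured antibody, expressed relative to reference antibody set as 100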
[1] = molecular target: T4, human FcγRIIIa(F) (human, UniProt P08637 17-208, limits assumed)
T4 construct: also called FcgRIIIaF; allotype F158

[2] = molecular target: T5, human FcγRIa (human, UniProt P12314 16-292, limits assumed)
T5 construct: also called FcgRIa; FcγRI (CD64)

[3] = molecular target: T1, human FcγRIIb
[4] = molecular target: T2, human FcγRIIa(H)
[5] = molecular target: T3, human FcγRIIa(R)

T5 sequence (P12314 16-292 limits assumed): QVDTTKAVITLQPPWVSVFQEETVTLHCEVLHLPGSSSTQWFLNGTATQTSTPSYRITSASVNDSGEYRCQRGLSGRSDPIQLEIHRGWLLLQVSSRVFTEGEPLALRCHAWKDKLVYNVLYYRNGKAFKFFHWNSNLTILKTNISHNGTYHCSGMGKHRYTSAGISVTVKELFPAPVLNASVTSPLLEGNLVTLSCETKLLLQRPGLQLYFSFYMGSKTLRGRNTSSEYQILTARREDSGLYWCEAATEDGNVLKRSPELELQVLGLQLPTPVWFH
T4 sequence (P08637 other isoform, or with tags, fused parts or gaps limits assumed): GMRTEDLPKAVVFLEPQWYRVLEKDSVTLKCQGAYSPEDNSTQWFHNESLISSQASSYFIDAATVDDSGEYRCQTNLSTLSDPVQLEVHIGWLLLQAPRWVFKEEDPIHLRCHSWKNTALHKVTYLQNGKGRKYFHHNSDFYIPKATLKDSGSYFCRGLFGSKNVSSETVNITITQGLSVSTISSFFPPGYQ

Binder	relative binding activity [1]	relative binding activity [2]	relative binding activity [3]	relative binding activity [4]	relative binding activity [5]
GpH7-B3 variant E269N/GpL16-k0 (antibody, human IgG1, copies: 2 + 2) heavy: not shown light: DIVMTQSPLSLPVTPGEPASISCQASESLVHSNRNTYLHWYLQKPGQSPQLLIYKVSNRFSGVPDRFSGSGSGTDFTLKISRVEAEDVGVYYCSQNTHVPPTFGQGTKVEIE	21 % of GpH7-B3/GpL16-k0	90 % of GpH7-B3/GpL16-k0	15 % of GpH7-B3/GpL16-k0	31 % of GpH7-B3/GpL16-k0	24 % of GpH7-B3/GpL16-k0
GpH7-B3 variant E269Q/GpL16-k0 (antibody, human IgG1, copies: 2 + 2) heavy: not shown light: DIVMTQSPLSLPVTPGEPASISCQASESLVHSNRNTYLHWYLQKPGQSPQLLIYKVSNRFSGVPDRFSGSGSGTDFTLKISRVEAEDVGVYYCSQNTHVPPTFGQGTKVEIE	38 % of GpH7-B3/GpL16-k0	96 % of GpH7-B3/GpL16-k0	13 % of GpH7-B3/GpL16-k0	64 % of GpH7-B3/GpL16-k0	24 % of GpH7-B3/GpL16-k0
GpH7-B3 variant G236M/GpL16-k0 (antibody, human IgG1, copies: 2 + 2) heavy: not shown light: DIVMTQSPLSLPVTPGEPASISCQASESLVHSNRNTYLHWYLQKPGQSPQLLIYKVSNRFSGVPDRFSGSGSGTDFTLKISRVEAEDVGVYYCSQNTHVPPTFGQGTKVEIE	9 % of GpH7-B3/GpL16-k0	70 % of GpH7-B3/GpL16-k0	14 % of GpH7-B3/GpL16-k0	42 % of GpH7-B3/GpL16-k0	23 % of GpH7-B3/GpL16-k0
GpH7-B3 variant E269R/GpL16-k0 (antibody, human IgG1, copies: 2 + 2) heavy: not shown light: DIVMTQSPLSLPVTPGEPASISCQASESLVHSNRNTYLHWYLQKPGQSPQLLIYKVSNRFSGVPDRFSGSGSGTDFTLKISRVEAEDVGVYYCSQNTHVPPTFGQGTKVEIE	7 % of GpH7-B3/GpL16-k0	72 % of GpH7-B3/GpL16-k0	0 % of GpH7-B3/GpL16-k0	13 % of GpH7-B3/GpL16-k0	2 % of GpH7-B3/GpL16-k0
GpH7-B3 variant E269T/GpL16-k0 (antibody, human IgG1, copies: 2 + 2) heavy: not shown light: DIVMTQSPLSLPVTPGEPASISCQASESLVHSNRNTYLHWYLQKPGQSPQLLIYKVSNRFSGVPDRFSGSGSGTDFTLKISRVEAEDVGVYYCSQNTHVPPTFGQGTKVEIE	26 % of GpH7-B3/GpL16-k0	93 % of GpH7-B3/GpL16-k0	19 % of GpH7-B3/GpL16-k0	39 % of GpH7-B3/GpL16-k0	35 % of GpH7-B3/GpL16-k0
GpH7-B3 variant E2698/GpL16-k0 (antibody, human IgG1, read as E269S (misprint of S as 8); copies: 2 + 2) heavy: not shown light: DIVMTQSPLSLPVTPGEPASISCQASESLVHSNRNTYLHWYLQKPGQSPQLLIYKVSNRFSGVPDRFSGSGSGTDFTLKISRVEAEDVGVYYCSQNTHVPPTFGQGTKVEIE	29 % of GpH7-B3/GpL16-k0	93 % of GpH7-B3/GpL16-k0	19 % of GpH7-B3/GpL16-k0	48 % of GpH7-B3/GpL16-k0	33 % of GpH7-B3/GpL16-k0
GpH7-B3 variant G236N/GpL16-k0 (antibody, human IgG1, copies: 2 + 2) heavy: not shown light: DIVMTQSPLSLPVTPGEPASISCQASESLVHSNRNTYLHWYLQKPGQSPQLLIYKVSNRFSGVPDRFSGSGSGTDFTLKISRVEAEDVGVYYCSQNTHVPPTFGQGTKVEIE	8 % of GpH7-B3/GpL16-k0	42 % of GpH7-B3/GpL16-k0	75 % of GpH7-B3/GpL16-k0	81 % of GpH7-B3/GpL16-k0	54 % of GpH7-B3/GpL16-k0
GpH7-B3 variant G237E/GpL16-k0 (antibody, human IgG1, copies: 2 + 2) heavy: not shown light: DIVMTQSPLSLPVTPGEPASISCQASESLVHSNRNTYLHWYLQKPGQSPQLLIYKVSNRFSGVPDRFSGSGSGTDFTLKISRVEAEDVGVYYCSQNTHVPPTFGQGTKVEIE	0 % of GpH7-B3/GpL16-k0	18 % of GpH7-B3/GpL16-k0	18 % of GpH7-B3/GpL16-k0	1 % of GpH7-B3/GpL16-k0	23 % of GpH7-B3/GpL16-k0
GpH7-B3 variant G236L/GpL16-k0 (antibody, human IgG1, copies: 2 + 2) heavy: not shown light: DIVMTQSPLSLPVTPGEPASISCQASESLVHSNRNTYLHWYLQKPGQSPQLLIYKVSNRFSGVPDRFSGSGSGTDFTLKISRVEAEDVGVYYCSQNTHVPPTFGQGTKVEIE	1 % of GpH7-B3/GpL16-k0	18 % of GpH7-B3/GpL16-k0	4 % of GpH7-B3/GpL16-k0	23 % of GpH7-B3/GpL16-k0	20 % of GpH7-B3/GpL16-k0
GpH7-B3 variant E269V/GpL16-k0 (antibody, human IgG1, copies: 2 + 2) heavy: not shown light: DIVMTQSPLSLPVTPGEPASISCQASESLVHSNRNTYLHWYLQKPGQSPQLLIYKVSNRFSGVPDRFSGSGSGTDFTLKISRVEAEDVGVYYCSQNTHVPPTFGQGTKVEIE	12 % of GpH7-B3/GpL16-k0	92 % of GpH7-B3/GpL16-k0	10 % of GpH7-B3/GpL16-k0	35 % of GpH7-B3/GpL16-k0	16 % of GpH7-B3/GpL16-k0
